Assay results: patent US20260242419A1, “A CYCLIC PEPTIDE FOR TRAPPING INTERLEUKIN-1 BETA” (Merck Sharp & Dohme LLC, priority 2023, published 2026)
Starred links: 1 amine or outer side, 2 acyl side, 3 side chain; linkers in the order of their positions; H or OH if unused. Non-standard residues stand in square brackets, D forms with d. Trp4Az = (2S)-2-amino-3-(1H-pyrrolo[3,2-b]pyridin-3-yl)propanoic acid, O=C([C@H](Cc1c[nH]c2cccnc12)N[*:1])[*:2]; dPro(4R-(4-pyridylmethyl)) = O=C(O)[C@H]1C[C@@H](Cc2ccncc2)CN1; Ala(piperidin-4-yl) = O=C([C@H](CC1CCN([*:3])CC1)N[*:1])[*:2]; Trp(βS-Me,4-F) = C[C@@H](c1c[nH]c2cccc(F)c12)[C@H](N)C(=O)O; Bip(4'-COOH) = N[C@@H](Cc1ccc(-c2ccc(C(=O)O)cc2)cc1)C(=O)O; Ala(1-bicyclo(1.1.1)pentyl) = N[C@@H](CC12CC(C1)C2)C(=O)O; dPro(4R-Bzl(4-F)) = O=C(O)[C@H]1C[C@@H](Cc2ccc(F)cc2)CN1; Ala(morpholin-4-yl) = N[C@@H](CN1CCOCC1)C(=O)O; Ala(piperazin-1-yl) = N[C@@H](CN1CCNCC1)C(=O)O; Ala(pyrimidin-5-yl) = N[C@@H](Cc1cncnc1)C(=O)O; Phe(4-COOH) = N[C@@H](Cc1ccc(C(=O)O)cc1)C(=O)O; Pro(cis-4-F) = O=C(O)[C@@H]1C[C@H](F)CN1; cisHyp = O=C(O)[C@@H]1C[C@H](O)CN1; d(αMeD) = C[C@@](N)(CC(=O)O)C(=O)O; 4Pal = N[C@@H](Cc1ccncc1)C(=O)O; d(αMeS) = C[C@@](N)(CO)C(=O)O; Cba = N[C@@H](CC1CCC1)C(=O)O; αMeK = C[C@](N)(CCCCN)C(=O)O; Dab = NCC[C@H](N)C(=O)O; Aib = CC(C)(N)C(=O)O

B1: SEQ ID NO: 154 (peptide)
peptide: cyclo([Bip(4'-COOH)][4Pal][Phe(4-COOH)]G[Pro(cis-4-F)][Trp(βS-Me,4-F)][Aib]SW[d(αMeD)][Ala(pyrimidin-5-yl)]Q[Dab]G[dPro(4R-(4-pyridylmethyl))])
modifications: ring closure inferred
B2: SEQ ID NO: 155 (peptide)
peptide: cyclo([Bip(4'-COOH)][Ala(1-bicyclo(1.1.1)pentyl)][Phe(4-COOH)]G[Pro(cis-4-F)][Trp(βS-Me,4-F)][Aib]SW[d(αMeD)][Ala(pyrimidin-5-yl)]Q[Dab]G[dPro(4R-(4-pyridylmethyl))])
modifications: ring closure inferred
B3: SEQ ID NO: 156 (peptide)
peptide: cyclo([Bip(4'-COOH)][4Pal][Phe(4-COOH)]G[Pro(cis-4-F)][Trp(βS-Me,4-F)][Aib]SW[d(αMeD)][Ala(pyrimidin-5-yl)]QSG[dPro(4R-(4-pyridylmethyl))])
modifications: ring closure inferred
B4: SEQ ID NO: 157 (peptide)
peptide: cyclo([Bip(4'-COOH)][Ala(1-bicyclo(1.1.1)pentyl)][Phe(4-COOH)]G[cisHyp][Trp(βS-Me,4-F)][Aib]SW[d(αMeD)][Ala(pyrimidin-5-yl)]QSG[dPro(4R-(4-pyridylmethyl))])
modifications: ring closure inferred
B5: SEQ ID NO: 158 (peptide)
peptide: cyclo([Bip(4'-COOH)][Ala(1-bicyclo(1.1.1)pentyl)][Phe(4-COOH)]G[Pro(cis-4-F)][Trp(βS-Me,4-F)][Aib]SW[d(αMeD)][Ala(pyrimidin-5-yl)]QSG[dPro(4R-(4-pyridylmethyl))])
modifications: ring closure inferred
B6: SEQ ID NO: 159 (peptide)
peptide: cyclo([Bip(4'-COOH)][4Pal][Phe(4-COOH)]G[cisHyp][Trp(βS-Me,4-F)][Aib]SW[d(αMeD)][Ala(pyrimidin-5-yl)]Q[Dab]G[dPro(4R-(4-pyridylmethyl))])
modifications: ring closure inferred
B7: SEQ ID NO: 160 (peptide)
peptide: cyclo([Bip(4'-COOH)][Ala(1-bicyclo(1.1.1)pentyl)][Phe(4-COOH)]G[cisHyp][Trp(βS-Me,4-F)][Aib]SW[d(αMeD)][Ala(pyrimidin-5-yl)]Q[Dab]G[dPro(4R-(4-pyridylmethyl))])
modifications: ring closure inferred
B8: SEQ ID NO: 161 (peptide)
peptide: cyclo([Bip(4'-COOH)][4Pal][Phe(4-COOH)]G[cisHyp][Trp(βS-Me,4-F)][Aib]SW[d(αMeD)][Ala(pyrimidin-5-yl)]QSG[dPro(4R-(4-pyridylmethyl))])
modifications: ring closure inferred
B9: SEQ ID NO: 162 (peptide)
peptide: cyclo([Bip(4'-COOH)][4Pal][Phe(4-COOH)]G[Pro(cis-4-F)][Trp(βS-Me,4-F)][Aib]S[Trp4Az][Aib][Ala(pyrimidin-5-yl)]Q[Dab]G[dPro(4R-(4-pyridylmethyl))])
modifications: ring closure inferred
B10: SEQ ID NO: 163 (peptide)
peptide: cyclo([Bip(4'-COOH)][Cba][Phe(4-COOH)]G[Pro(cis-4-F)][Trp(βS-Me,4-F)][Aib]SW[Aib][Ala(pyrimidin-5-yl)]Q[Dab]G[dPro(4R-(4-pyridylmethyl))])
modifications: ring closure inferred
B11: SEQ ID NO: 164 (peptide)
peptide: cyclo([Bip(4'-COOH)][Cba][Phe(4-COOH)]G[cisHyp][Trp(βS-Me,4-F)][Aib]SW[d(αMeD)][Ala(pyrimidin-5-yl)]Q[Dab]G[dPro(4R-(4-pyridylmethyl))])
modifications: ring closure inferred
B12: SEQ ID NO: 165 (peptide)
peptide: cyclo([Bip(4'-COOH)][Ala(1-bicyclo(1.1.1)pentyl)][Phe(4-COOH)]G[Pro(cis-4-F)][Trp(βS-Me,4-F)][Aib]EW[αMeK][Ala(morpholin-4-yl)]Q[Dab]G[dPro(4R-Bzl(4-F))])
modifications: ring closure inferred
B13: SEQ ID NO: 166 (peptide)
peptide: cyclo([Bip(4'-COOH)][Ala(1-bicyclo(1.1.1)pentyl)][Phe(4-COOH)]G[Pro(cis-4-F)][Trp(βS-Me,4-F)][Aib]EW[αMeK][Ala(piperidin-4-yl)]Q[Dab]G[dPro(4R-Bzl(4-F))])
modifications: ring closure inferred
B14: SEQ ID NO: 167 (peptide)
peptide: cyclo([Bip(4'-COOH)][Ala(1-bicyclo(1.1.1)pentyl)][Phe(4-COOH)]G[Pro(cis-4-F)][Trp(βS-Me,4-F)][Aib]SW[Aib][Ala(morpholin-4-yl)]Q[Dab]G[dPro(4R-Bzl(4-F))])
modifications: ring closure inferred
B15: SEQ ID NO: 168 (peptide)
peptide: cyclo([Bip(4'-COOH)][Ala(1-bicyclo(1.1.1)pentyl)][Phe(4-COOH)]G[Pro(cis-4-F)][Trp(βS-Me,4-F)][Aib]SW[Aib][Ala(piperazin-1-yl)]Q[Dab]G[dPro(4R-Bzl(4-F))])
modifications: ring closure inferred
B16: SEQ ID NO: 169 (peptide)
peptide: cyclo([Bip(4'-COOH)][Ala(1-bicyclo(1.1.1)pentyl)][Phe(4-COOH)]G[Pro(cis-4-F)][Trp(βS-Me,4-F)][Aib]SW[Aib][Ala(piperidin-4-yl)]Q[Dab]G[dPro(4R-Bzl(4-F))])
modifications: ring closure inferred
B17: SEQ ID NO: 170 (peptide)
peptide: cyclo([Bip(4'-COOH)][Ala(1-bicyclo(1.1.1)pentyl)][Phe(4-COOH)]G[Pro(cis-4-F)][Trp(βS-Me,4-F)][Aib]SW[d(αMeS)][Ala(morpholin-4-yl)]Q[Dab]G[dPro(4R-Bzl(4-F))])
modifications: ring closure inferred
B18: SEQ ID NO: 171 (peptide)
peptide: cyclo([Bip(4'-COOH)][Ala(1-bicyclo(1.1.1)pentyl)][Phe(4-COOH)]G[Pro(cis-4-F)][Trp(βS-Me,4-F)][Aib]SW[d(αMeS)][Ala(piperazin-1-yl)]Q[Dab]G[dPro(4R-Bzl(4-F))])
modifications: ring closure inferred
B19: SEQ ID NO: 172 (peptide)
peptide: cyclo([Bip(4'-COOH)][Ala(1-bicyclo(1.1.1)pentyl)][Phe(4-COOH)]G[Pro(cis-4-F)][Trp(βS-Me,4-F)][Aib]SW[d(αMeS)][Ala(piperidin-4-yl)]Q[Dab]G[dPro(4R-Bzl(4-F))])
modifications: ring closure inferred; not fully specified (bridges); printed as Bip4CO2H-AlaPent-Phe4COOH-G-Proc4F-SbMeW4F-Aib-S-W-daMeS-AlaPip4-Q-Dab-G-dProc4Bn4F, cyclic (macrolactam)
B20: SEQ ID NO: 173 (peptide)
peptide: cyclo([Bip(4'-COOH)][Ala(1-bicyclo(1.1.1)pentyl)][Phe(4-COOH)]G[Pro(cis-4-F)][Trp(βS-Me,4-F)][Aib]SW[αMeK][Ala(morpholin-4-yl)]QSG[dPro(4R-Bzl(4-F))])
modifications: ring closure inferred; not fully specified (bridges); printed as Bip4CO2H-AlaPent-Phe4COOH-G-Proc4F-SbMeW4F-Aib-S-W-aMeK-AlaMph-Q-S-G-dProc4Bn4F, cyclic (macrolactam)
B21: SEQ ID NO: 174 (peptide)
peptide: cyclo([Bip(4'-COOH)][Ala(1-bicyclo(1.1.1)pentyl)][Phe(4-COOH)]G[Pro(cis-4-F)][Trp(βS-Me,4-F)][Aib]SW[αMeK][Ala(morpholin-4-yl)]Q[Dab]G[dPro(4R-Bzl(4-F))])
modifications: ring closure inferred; not fully specified (bridges); printed as Bip4CO2H-AlaPent-Phe4COOH-G-Proc4F-SbMeW4F-Aib-S-W-aMeK-AlaMph-Q-Dab-G-dProc4Bn4F, cyclic (macrolactam)
B22: SEQ ID NO: 175 (peptide)
peptide: cyclo([Bip(4'-COOH)][Ala(1-bicyclo(1.1.1)pentyl)][Phe(4-COOH)]G[Pro(cis-4-F)][Trp(βS-Me,4-F)][Aib]SW[αMeK][Ala(piperazin-1-yl)]QSG[dPro(4R-Bzl(4-F))])
modifications: ring closure inferred; not fully specified (bridges); printed as Bip4CO2H-AlaPent-Phe4COOH-G-Proc4F-SbMeW4F-Aib-S-W-aMeK-AlaPiperaz-Q-S-G-dProc4Bn4F, cyclic (macrolactam)
B23: SEQ ID NO: 176 (peptide)
peptide: cyclo([Bip(4'-COOH)][Ala(1-bicyclo(1.1.1)pentyl)][Phe(4-COOH)]G[Pro(cis-4-F)][Trp(βS-Me,4-F)][Aib]EW[Aib][Ala(piperidin-4-yl)]QSG[dPro(4R-(4-pyridylmethyl))])
modifications: ring closure inferred; not fully specified (bridges); printed as Bip4CO2H-AlaPent-Phe4COOH-G-Proc4F-SbMeW4F-Aib-E-W-Aib-AlaPip4-Q-S-G-dProc4CH24Pal, cyclic (macrolactam)

target: Recombinant human IL-1β (BioLegend 579404) (human, UniProt P01584 117-269); experiment: cell-based or functional assay

Row | Binder | MRC5 IC50 [nM]
1 | B1 | 0.011
2 | B2 | 0.011
3 | B3 | 0.015
4 | B4 | 0.038
5 | B5 | 0.013
6 | B6 | 0.013
7 | B7 | 0.023
8 | B8 | 0.019
9 | B9 | 0.05
10 | B10 | 0.03
11 | B11 | 0.039
12 | B12 | 0.022
13 | B13 | 0.039
14 | B14 | 0.013
15 | B15 | 0.018
16 | B16 | 0.019
17 | B17 | 0.015
18 | B18 | 0.016
19 | B19 | 0.016
20 | B20 | 0.037
21 | B21 | 0.025
22 | B22 | 0.037
23 | B23 | 0.036
